Our source for the Kd values is PMC6232179.

A word on the Kd: it is the equilibrium constant for the complex coming apart. A lower Kd goes with a tighter complex.

This test has as its target COX-2 (prostaglandin endoperoxide synthase 2, PTGS2), purified His-tagged protein (UniProt P35354). As to the kind of experiment: SPR; COX-2 immobilised on a CM5 chip, cyclosporine A flowed at increasing concentrations; 10 mM Hepes pH 7.2, 150 mM NaCl, 1 mM EDTA, 0.005% P20, 2% ethanol; 25 °C, 30 µl/min; 1:1 Langmuir model; triplicate. For orientation: SPR reads the build-up and loss of mass on a sensor chip optically.

Sequence of COX-2 (prostaglandin endoperoxide synthase 2, PTGS2), purified His-tagged protein (P35354 18-604): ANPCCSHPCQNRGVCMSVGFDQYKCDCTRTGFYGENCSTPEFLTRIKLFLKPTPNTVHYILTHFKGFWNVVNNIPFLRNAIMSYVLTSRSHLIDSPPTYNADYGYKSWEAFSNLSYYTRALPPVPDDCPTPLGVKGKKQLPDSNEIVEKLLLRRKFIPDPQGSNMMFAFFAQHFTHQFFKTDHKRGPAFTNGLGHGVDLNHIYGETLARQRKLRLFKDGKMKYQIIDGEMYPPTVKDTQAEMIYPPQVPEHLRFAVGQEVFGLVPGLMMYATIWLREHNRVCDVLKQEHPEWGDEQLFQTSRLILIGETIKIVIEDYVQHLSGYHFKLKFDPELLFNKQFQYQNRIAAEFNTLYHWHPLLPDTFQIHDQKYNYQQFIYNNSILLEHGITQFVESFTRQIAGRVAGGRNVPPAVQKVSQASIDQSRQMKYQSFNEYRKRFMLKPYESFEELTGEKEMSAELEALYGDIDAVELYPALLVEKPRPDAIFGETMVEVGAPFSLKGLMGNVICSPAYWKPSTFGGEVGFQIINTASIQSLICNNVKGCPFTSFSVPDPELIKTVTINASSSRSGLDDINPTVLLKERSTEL

Substance Cyclosporine A (peptide) had a Kd of 895 nM.
